Laboratory results taken from PMC6168691, “The amino‐terminal domain of Mycobacterium tuberculosis ClpB protein plays a crucial role in its substrate disaggregation activity” (FEBS Open Bio, 2018).
Values joined by “and” are separate entries in the source; they are usually repeats but may differ in a detail not shown here. Equal entries are not always repeated.

Assays:
[1] = target: Mycobacterium tuberculosis DnaK (Mycobacterium tuberculosis) (UniProt P9WMJ9)
[2] = target: recombinant firefly luciferase (firefly) [luciferase: P08659]
recombinant firefly luciferase (firefly) [luciferase: P08659], sequence (P08659 whole entry): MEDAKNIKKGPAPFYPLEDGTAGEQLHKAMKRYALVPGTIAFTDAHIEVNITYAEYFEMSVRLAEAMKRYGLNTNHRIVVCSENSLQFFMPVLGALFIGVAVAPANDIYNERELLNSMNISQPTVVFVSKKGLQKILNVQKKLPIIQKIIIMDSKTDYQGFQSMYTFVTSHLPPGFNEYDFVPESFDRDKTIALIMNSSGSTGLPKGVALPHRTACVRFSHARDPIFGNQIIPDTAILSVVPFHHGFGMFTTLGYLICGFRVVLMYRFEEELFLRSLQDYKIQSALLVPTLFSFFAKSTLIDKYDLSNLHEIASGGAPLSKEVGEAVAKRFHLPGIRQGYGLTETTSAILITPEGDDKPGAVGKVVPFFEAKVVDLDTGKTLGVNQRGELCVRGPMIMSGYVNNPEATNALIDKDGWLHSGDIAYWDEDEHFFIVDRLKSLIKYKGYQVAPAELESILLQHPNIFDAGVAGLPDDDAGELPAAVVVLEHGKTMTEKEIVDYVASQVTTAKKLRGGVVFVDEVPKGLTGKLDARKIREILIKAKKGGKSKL

[3] = target: KJE chaperone complex (DnaK, DnaJ1, GrpE of Mycobacterium tuberculosis) (Mycobacterium tuberculosis | Mycobacterium tuberculosis H37Rv) (UniProt P9WMJ9)
[4] = target: malate dehydrogenase from pig heart (pig) (UniProt P00346)
malate dehydrogenase from pig heart (pig), sequence (P00346 25-338): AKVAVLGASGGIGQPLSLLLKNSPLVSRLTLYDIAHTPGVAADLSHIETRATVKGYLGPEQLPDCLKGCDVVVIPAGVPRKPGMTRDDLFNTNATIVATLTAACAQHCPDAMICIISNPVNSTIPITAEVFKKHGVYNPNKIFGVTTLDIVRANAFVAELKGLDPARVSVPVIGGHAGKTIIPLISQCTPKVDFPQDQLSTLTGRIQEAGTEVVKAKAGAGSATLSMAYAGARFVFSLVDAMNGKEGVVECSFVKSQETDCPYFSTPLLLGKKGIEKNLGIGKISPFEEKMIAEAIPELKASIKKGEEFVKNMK

[5] = target: malate dehydrogenase from pig heart (pig) (UniProt P00346); remark: listed apart in the source
[6] = target: recombinant firefly luciferase (firefly) [luciferase: P08659]; remark: listed apart in the source
[7] = target: FITC-labelled casein; test: fluorescence polarisation
[8] = target: N-terminally truncated Mycobacterium tuberculosis ClpB (ClpB∆N, residues 149–848) (Mycobacterium tuberculosis H37Rv) (UniProt P9WPD1); test: SEC; Superdex-200 (1 × 60 cm), buffer A; protein loaded at 6 mg/mL, no nucleotide
[9] = target: N-terminally truncated Mycobacterium tuberculosis ClpB (ClpB∆N, residues 149–848) (Mycobacterium tuberculosis H37Rv) (UniProt P9WPD1); test: SEC; Superdex-200, buffer A; protein 0.2 mg/mL incubated with 5 mM ATP for 10 min at room temperature before loading
[10] = target: N-terminally truncated Mycobacterium tuberculosis ClpB (ClpB∆N, residues 149–848) (Mycobacterium tuberculosis H37Rv) (UniProt P9WPD1); test: SEC; Superdex-200 (1 × 60 cm), buffer A (50 mM Tris/HCl pH 7.5, 100 mM KCl, 10% glycerol, 1 mM EDTA, 1 mM DTT); protein loaded at 0.2 mg/mL, no nucleotide
[11] = target: T1, Mycobacterium tuberculosis ClpB, full length (residues 1–848) (Mycobacterium tuberculosis H37Rv, UniProt P9WPD1 1-848); test: fluorescence polarisation; details: both partners purified
T1 construct: also called Mtb ClpB; WT ClpB

[12] = target: T1, Mycobacterium tuberculosis ClpB, full …; test: fluorescence polarisation; details: both partners purified; remark: listed apart in the source

N-terminally truncated Mycobacterium tuberculosis ClpB (ClpB∆N, residues 149–848) (from UniProt P9WPD1 149-848) (domain or fragment)
ATPase activity of ClpB∆N left at 1 mM ADP (5 mM ATP) with 1 μM DnaK [1]: 17% | prevention of heat aggregation of luciferase by the highest concentration of ClpB∆N in the absence of ATP [2]: 24% | reactivation of small aggregates of MDH by 1 μM ClpB∆N with 1 μM KJE complex (about 25% by ClpB∆N alone, 3.6% by KJE alone) [3]: 32% | reactivation of small aggregates of MDH by 1 μM ClpB∆N alone, percent of native MDH activity [4]: 25% | drop of reactivation activity of ClpB∆N alone on large against small aggregates of MDH [5]: 80% | drop of reactivation activity of ClpB∆N with KJE on large against small aggregates of MDH [5]: 48% | reactivation of large aggregates of luciferase by ClpB∆N against ClpB, alone and with KJE (luminescence) [6]: > 20% | Kd [7]: 6.94 µM | stoichiometry N [8]: 6 and 4 | stoichiometry N [9]: 6 | stoichiometry N [10]: 6 and 2

Mycobacterium tuberculosis ClpB L97D (from UniProt P9WPD1 1-848) (natural protein)
Kd [7]: 10 µM

Mycobacterium tuberculosis ClpB L101Q (from UniProt P9WPD1 1-848) (natural protein)
Kd [7]: 5.3 µM

Mycobacterium tuberculosis ClpB V141K (from UniProt P9WPD1 1-848) (natural protein)
Kd [7]: 10 µM

Mycobacterium tuberculosis ClpB F140T (from UniProt P9WPD1 1-848) (natural protein)
Kd [7]: 24 µM

B1: FITC-labelled casein (natural protein)
chain: RPKHPIKHQGLPQEVLNENLLRFFVAPFPEVFGKEKVNELSKDIGSESTEDQAMEDIKQMEAESISSSEEIVPNSVEQKHIQKEDVPSERYLGYLEQLLRLKKYKVPQLEIVPNSAEERLHSMKEGIHAQQKEPMIGVNQELAYFYPELFRQFYQLDAYPSGAWYYVPLGTQYTDAPSFSDIPNPIGSENSEKTTMPLW
modifications: FITC label
Kd [11]: 0.88 ± 0.47 µM | Kd [12]: 0.9 µM
